For three molecules, Kd, binding result and OD450-570 results are on record in patent US20220339270A1 (published 2022).

By Kd is commonly meant a measure of binding affinity in units of concentration.

The target in experiment [1] is T1, extracellular tau in the form of paired helical filaments (ePHF) (UniProt P10636-8 1-441, limits assumed).
T1 construct: Immobilised on 96-well plates for the ePHF tau ELISA; also called ePHF tau; PHF tau
As to the kind of experiment: method not stated.

The target of experiment [2] is T2, recombinant tau mutant protein tau441-T212A+T217A (phospho-Tau variant) (human, UniProt P10636 1-758, phosphorylated (phospho-Tau variant; kinase DYRK1A by the context)).
T2 construct: not shown: his tag (detected with anti-his antibody)
As to the kind of experiment: PT3 ELISA with phospho-Tau variants.

Experiment [3] addresses T3, recombinant tau mutant protein tau441-T212A+T217A+T231A (phospho-Tau variant) (human, UniProt P10636 1-758, phosphorylated (phospho-Tau variant; kinase DYRK1A by the context)).
T3 construct: not shown: his tag (detected with anti-his antibody)
As to the kind of experiment: PT3 ELISA with phospho-Tau variants.

Experiment [4] concerns the target T4, recombinant tau mutant protein tau441-T217A+T231A (phospho-Tau variant) (human, UniProt P10636 1-758, phosphorylated (phospho-Tau variant; kinase DYRK1A by the context)).
T4 construct: not shown: his tag (detected with anti-his antibody)
In words: PT3 ELISA with phospho-Tau variants. (In general: An ELISA detects its analyte on a solid surface through an enzyme-linked reagent.)

For experiment [5], the target named is T5, recombinant tau mutant protein tau441-T212A+S214A (phospho-Tau variant) (human, UniProt P10636 1-758, phosphorylated (phospho-Tau variant; kinase DYRK1A by the context)).
T5 construct: not shown: his tag (detected with anti-his antibody)
In words: PT3 ELISA with phospho-Tau variants.

The target of experiment [6] is T6, recombinant tau mutant protein tau441-T212A+T231A (phospho-Tau variant) (human, UniProt P10636 1-758, phosphorylated (phospho-Tau variant; kinase DYRK1A by the context)).
T6 construct: not shown: his tag (detected with anti-his antibody)
In words: PT3 ELISA with phospho-Tau variants.

The target of experiment [7] is T7, Tau441-T217A + T231A, phosphorylated in vitro by DYRK1A (human, UniProt P10636 1-758, phosphorylated in vitro by DYRK1A; occupied sites not determined individually).
T7 construct: His-tagged
In words: PT3 ELISA, 210 ng/mL DYRK1A-phosphorylated tau variant.

In experiment [8] the target is T8, Tau441-T212A + S214A, phosphorylated in vitro by DYRK1A (human, UniProt P10636 1-758, phosphorylated in vitro by DYRK1A; occupied sites not determined individually).
T8 construct: His-tagged
The experiment is described as above.

Experiment [9] deals with T9, Tau441-T212A + T217A, phosphorylated in vitro by DYRK1A (human, UniProt P10636 1-758, phosphorylated in vitro by DYRK1A; occupied sites not determined individually).
T9 construct: His-tagged
Described as above.

Experiment [10] has as its target T10, Tau441-T212A + T217A + T231A, phosphorylated in vitro by DYRK1A (human, UniProt P10636 1-758, phosphorylated in vitro by DYRK1A; occupied sites not determined individually).
T10 construct: His-tagged
Described as above.

The target in experiment [11] is T11, Wild-type Tau441, phosphorylated in vitro by DYRK1A (human, UniProt P10636 1-758).
T11 construct: Recombinant protein detected with an anti-his antibody; also called phospho-tau
Described as above.

Experiment [12] addresses T12, Tau441-T212A + T231A, phosphorylated in vitro by DYRK1A (human, UniProt P10636 1-758, phosphorylated in vitro by DYRK1A; occupied sites not determined individually).
T12 construct: His-tagged
Described as above.

In experiment [13] the target is T13, Tau441_S396A (human, UniProt P10636 2-758).
T13 construct: not phosphorylated; not shown: his tag added
As to the kind of experiment: ELISA, PT3 immobilized, tau protein applied at 333 ng/mL.

Experiment [14] deals with T14, Tau441_T212A (human, UniProt P10636 2-758).
T14 construct: not phosphorylated; not shown: his tag added
Described as above.

Experiment [15] concerns the target T15, Phospho_Tau441_T217A (human, UniProt P10636 2-758, phosphorylated in vitro by DYRK1A; sites not determined).
T15 construct: not shown: his tag added
The description is as above.

In experiment [16] the target is T16, Phospho_Tau441_T212A (human, UniProt P10636 2-758, phosphorylated in vitro by DYRK1A; sites not determined).
T16 construct: not shown: his tag added
The experiment is described as above.

In experiment [17] the target is T17, Phospho_Tau441_S396A (human, UniProt P10636 2-758, phosphorylated in vitro by DYRK1A; sites not determined).
T17 construct: not shown: his tag added
Described as above.

The target of experiment [18] is T18, Phospho_Tau441_T231A (human, UniProt P10636 2-758, phosphorylated in vitro by DYRK1A; sites not determined).
T18 construct: not shown: his tag added
The experiment is described as above.

For experiment [19], the target named is T19, Tau441_T181A (human, UniProt P10636 2-758).
T19 construct: not phosphorylated; not shown: his tag added
Described as above.

Experiment [20] concerns the target T20, Tau441_T231A (human, UniProt P10636 2-758).
T20 construct: not phosphorylated; not shown: his tag added
The experiment is described as above.

Experiment [21] has as its target T21, Phospho_Tau441_S199A (human, UniProt P10636 2-758, phosphorylated in vitro by DYRK1A; sites not determined).
T21 construct: not shown: his tag added
The description is as above.

The target of experiment [22] is T22, Phospho_Tau441_T202A (human, UniProt P10636 2-758, phosphorylated in vitro by DYRK1A; sites not determined).
T22 construct: the list of mutated sites gives S202; also called S202 mutant; not shown: his tag added
Described as above.

Experiment [23] has as its target T23, Tau441_S404A (human, UniProt P10636 2-758).
T23 construct: not phosphorylated; not shown: his tag added
The experiment is described as above.

Experiment [24] concerns the target T24, Tau441_T217A (human, UniProt P10636 2-758).
T24 construct: not phosphorylated; not shown: his tag added
The description is as above.

For experiment [25], the target named is T25, Tau441_S400A (human, UniProt P10636 2-758).
T25 construct: not phosphorylated; not shown: his tag added
The description is as above.

Experiment [26] has as its target T26, Tau441_T202A (human, UniProt P10636 2-758).
T26 construct: not phosphorylated; printed T202A, the text gives S202; also called S202 mutant; not shown: his tag added
Described as above.

In experiment [27] the target is T27, Tau441_T205A (human, UniProt P10636 2-758).
T27 construct: not phosphorylated; not shown: his tag added
Described as above.

The target in experiment [28] is T28, Phospho_Tau441_T205A (human, UniProt P10636 2-758, phosphorylated in vitro by DYRK1A; sites not determined).
T28 construct: not shown: his tag added
Described as above.

Experiment [29] has as its target T29, Phospho_Tau441_S400A (human, UniProt P10636 2-758, phosphorylated in vitro by DYRK1A; sites not determined).
T29 construct: not shown: his tag added
Described as above.

Experiment [30] has as its target T30, Phospho_Tau441_S404A (human, UniProt P10636 2-758, phosphorylated in vitro by DYRK1A; sites not determined).
T30 construct: not shown: his tag added
The experiment is described as above.

The target of experiment [31] is T31, Tau441_S199A (human, UniProt P10636 2-758).
T31 construct: not phosphorylated; not shown: his tag added
Described as above.

Experiment [32] addresses T32, Phospho_Tau441_S422A (human, UniProt P10636 2-758, phosphorylated in vitro by DYRK1A; sites not determined).
T32 construct: not shown: his tag added
The description is as above.

In experiment [33] the target is T33, Phospho_Tau441_T181A (human, UniProt P10636 2-758, phosphorylated in vitro by DYRK1A; sites not determined).
T33 construct: not shown: his tag added
Described as above.

T25 sequence (P10636 other isoform, or with tags, fused parts or gaps S400A S400A): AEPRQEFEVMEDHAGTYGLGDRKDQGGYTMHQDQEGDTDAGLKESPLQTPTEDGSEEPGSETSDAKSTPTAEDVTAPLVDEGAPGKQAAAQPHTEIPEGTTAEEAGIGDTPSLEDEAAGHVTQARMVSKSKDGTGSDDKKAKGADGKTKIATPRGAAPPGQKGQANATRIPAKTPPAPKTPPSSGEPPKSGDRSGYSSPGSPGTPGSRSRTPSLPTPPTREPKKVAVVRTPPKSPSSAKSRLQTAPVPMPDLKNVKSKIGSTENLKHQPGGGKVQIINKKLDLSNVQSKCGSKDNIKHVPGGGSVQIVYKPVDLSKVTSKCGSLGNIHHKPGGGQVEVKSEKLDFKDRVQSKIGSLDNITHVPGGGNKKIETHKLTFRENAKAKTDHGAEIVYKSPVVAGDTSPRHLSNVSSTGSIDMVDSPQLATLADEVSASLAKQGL
T29 sequence (P10636 other isoform, or with tags, fused parts or gaps S400A S400A): as above
T13 sequence (P10636 other isoform, or with tags, fused parts or gaps S396A S396A): as the sequence (P10636 other isoform, or with tags, fused parts or gaps S400A S400A) above, with S395A, A399S counted along it
T17 sequence (P10636 other isoform, or with tags, fused parts or gaps S396A S396A): as the sequence (P10636 other isoform, or with tags, fused parts or gaps S400A S400A) above, with S395A, A399S counted along it
T22 sequence (P10636 other isoform, or with tags, fused parts or gaps T202A T202A): as the sequence (P10636 other isoform, or with tags, fused parts or gaps S400A S400A) above, with S201A, A399S counted along it
T26 sequence (P10636 other isoform, or with tags, fused parts or gaps T202A T202A): as the sequence (P10636 other isoform, or with tags, fused parts or gaps S400A S400A) above, with S201A, A399S counted along it
T8 sequence (P10636 other isoform, or with tags, fused parts or gaps T212A S214A T212A S214A limits assumed): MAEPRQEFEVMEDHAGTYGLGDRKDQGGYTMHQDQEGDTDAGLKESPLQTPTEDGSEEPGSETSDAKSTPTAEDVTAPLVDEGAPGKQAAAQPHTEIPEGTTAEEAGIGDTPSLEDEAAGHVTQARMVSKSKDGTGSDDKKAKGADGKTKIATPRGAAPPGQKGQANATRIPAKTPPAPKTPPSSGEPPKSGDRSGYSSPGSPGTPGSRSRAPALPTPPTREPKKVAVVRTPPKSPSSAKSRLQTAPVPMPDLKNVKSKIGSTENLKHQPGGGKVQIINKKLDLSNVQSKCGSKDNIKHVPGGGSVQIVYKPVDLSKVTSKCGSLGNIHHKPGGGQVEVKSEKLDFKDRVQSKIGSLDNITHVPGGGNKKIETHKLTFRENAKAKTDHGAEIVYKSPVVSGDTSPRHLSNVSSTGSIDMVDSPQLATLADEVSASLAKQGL
T5 sequence (P10636 other isoform, or with tags, fused parts or gaps T212A S214A T212A S214A): as the sequence (P10636 other isoform, or with tags, fused parts or gaps T212A S214A T212A S214A limits assumed) above
T28 sequence (P10636 other isoform, or with tags, fused parts or gaps T205A T205A): as the sequence (P10636 other isoform, or with tags, fused parts or gaps S400A S400A) above, with T204A, A399S counted along it
T27 sequence (P10636 other isoform, or with tags, fused parts or gaps T205A T205A): as the sequence (P10636 other isoform, or with tags, fused parts or gaps S400A S400A) above, with T204A, A399S counted along it
T3 sequence (P10636 other isoform, or with tags, fused parts or gaps T212A T217A T231A T212A T217A T231A): as the sequence (P10636 other isoform, or with tags, fused parts or gaps T212A S214A T212A S214A limits assumed) above, with A214S, T217A, T231A counted along it

B1: anti-tau antibody PT3 (antibody, V domains shown)
VH: EVKLVESGGDLVKPGGSLKLSCAASGFTFSSYAMSWVRQNPEKRLEWVASISKGGNTYYPNSVKGRFTISRDNARNILYLQMSSLRSEDTALYYCARGWGDYGWFAYWGQVTLVTVSA
VL: DIKMTQSPSSMYASLGERVTITCKASQDINRYLNWFQQKPGKSPKTLIYRANRLLDGVPSRFSGSGSGQDYSLTISSLDYEDMGIYYCLQYDEFPLTFGDGTKLELK
notes: also called purified PT3 antibody
In the case of B1, in experiment [1], the affinity, expressed as Kd, was 0.018 nM. The binding result in experiment [2], in [3], in [4], in [5] and in [6] was “no binding (tested: 210 ng/mL)” throughout.

B2: anti-tau antibody PT3 (antibody, V domains shown)
VH: B1 VH
VL: B1 VL
As for B2, the OD450-570 in experiment [7] turned out to be 0.1 OD; in [8], 0.1 OD; in experiment [9] it was 0 OD; in experiment [10], 0 OD; in experiment [11] it was 1.7 OD; in experiment [12], 0.1 OD.

B3: anti-tau antibody PT3 (antibody, V domains shown)
VH: B1 VH
VL: B1 VL
For the molecule B3, the OD450-570 worked out at 0 in experiment [13]; 0 in experiment [14]; 0 in [15]; 0 in [16]; 0.5 in experiment [17]; 0.3 in [18]. Further, the OD450-570 is 0 in [19]; 0 in [20]; 0.7 in [21]; 0.6 in experiment [22]; 0 in experiment [23]; 0 in experiment [24]. In addition, the OD450-570 in experiment [25] was 0; in experiment [26], 0; in experiment [27], 0; in experiment [28] it was 0.4; in experiment [29], 0.3; in experiment [30], 0.6. In addition, the OD450-570 in experiment [31] came out at 0; in experiment [32], 0.3; in experiment [33], 0.4.
